Target: Wild type IRF5 (222-467) (human) (UniProt Q13568)
Experiment: TR-FRET

Sequence of Wild type IRF5 (222-467) (Q13568 232-477): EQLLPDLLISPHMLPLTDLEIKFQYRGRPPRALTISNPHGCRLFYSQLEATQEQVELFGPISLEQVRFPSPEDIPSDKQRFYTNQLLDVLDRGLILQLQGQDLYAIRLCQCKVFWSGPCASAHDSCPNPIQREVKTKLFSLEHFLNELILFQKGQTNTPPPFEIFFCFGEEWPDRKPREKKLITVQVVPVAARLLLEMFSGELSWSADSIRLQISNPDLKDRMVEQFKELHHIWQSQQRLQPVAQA

Substance	Kd [nM]
IRF5(222-467, S430D), S430D phosphomimetic construct of IRF5 (222-467) (from UniProt Q13568 222-467)	1580
Wild type IRF5 (222-467) (from UniProt Q13568 232-477)	4210
